Test results from patent US20250034594A1, “RNA-GUIDED GENOME RECOMBINEERING AT KILOBASE SCALE” (THE BOARD OF TRUSTEES OF THE LELAND STANFORD JUNIOR …, priority 2021, published 2025).

B1: SSAP_322: SEQ ID NO: 491; Candidatus Dependentiae bacterium (protein)
chain: CHVLNFQTDYKGEIKLAHKYSVRKIIDIYAKVVRDGDVLEIRVENGSQIVNFNPKVFNDGKIIGAFAVVKFVDGSLLYETMSKSEIDHTRVTFSKMPNGMAWKDSEGEMCRKTVLRRICKLIDLHFDSVEQEQAWNDGSDADLTKNEPVKPEIQNPFPTKAVEAVIVTEEEKLRKQLKDKDPTLQDWQIDALVREHKEANQ
modifications: Candidatus Dependentiae bacterium
B2: SSAP_88: SEQ ID NO: 257; Raoultella planticola (protein, listed as Raoultella planticola)
chain: TKQPPIAKADLQKTQGTRVSSPKGNNDVISFINQPSMKEQLAAALPRHMTAERMIRIATTEIRKVPALASCDTMSFVSAIVQCSQLGLEPGGALGHAYLLPFGNKNEKSGKKNVQLIIGYRGMIDLARRSGQIASLSARVVREGDEFSYEFGLEEKLTHRPGENEDAPVTHVYAVARLKDGGTQFEVLTSKQIELVRSQSKAANSGPWVTHWEEMAKKTAIRRLFKYLPVSIEIQRAVSIDEKEALTIDPADTSVLTGEYSVINSESEE
B3: SSAP_179: SEQ ID NO: 348; Acetoanaerobium noterae (protein, listed as Acetoanaerobium noterae)
chain: SNLKNELAKKANNSVTDGNKEPQTIKDWIKVMEPAIKKALPSVITPERFTRMALTAISVNPKLAECTPKSFMGSLMNAAQLGLEPNTPLGQAYLIPYKNKGNMEVQFQIGYKGLIELAYRSGEFANIYAKEVFENDEFEYEFGLEPVLKHKPASGNRGEVIAYYAVFKLTNGGFGFEVMSKEDITNHAKTYSQAYSSSYSPWSKNFDEMAKKTVLKKVLKYAPIKVEFVKQIVQDSTIKTEINSDMTEVESQNVFEAEETDYEVIDQEETK
B4: SSAP_297: SEQ ID NO: 466; Dysgonomonas capnocytophagoides (protein)
chain: STQQVQQQTKPLSLANFLNAPSTANFLKETLAEKKSEFVSNLIALCDADPKLAQCDPAQLMKCAMNATSLNLPLNKNLGYAYVIAYKGVPSFQIGYKGLIQLAIRTGQYKFINATEIREGEIRHNKITGEVIFNGEKPDAPIVGYMSYLELVNGFTASLYMTEEQIEQHALRFSQTYKNDKQYRSSTSKWSDPLARPTMCKKTVLKLLLGTYGLMTTEFAKALDSDSDDEVSTSGHRFEEAEIVQQGEPNEEQSDEPKRMEI
modifications: Dysgonomonas capnocytophagoides
B5: SSAP_131: SEQ ID NO: 300; Thermoclostridium stercorarium (protein, listed as Thermoclostridium stercorarium)
chain: TTVNQTELKNKLAEKAKTPAKTGNTVFDLIRKMEPEIKRALPKQISPERFARIAMTAVRNTPKLQACEPISFIAALMQSAQLGLEPNTPLGQAYLIPYGKEVQFQLGYQGMLTLAYRTGEYQSIYAMPVYANDEFEYEYGLNEKLVHKPAPDPEGEPIYYYAVYKLKNGGHGFVVMSRQQIERHRDKYSPSAKQGKFSPWNTDFDSMAKKTVLKQLLKYAPKSVEFATQIAQDETIKTEIAEDMTEVQGIEVEYEATDDQENQENQEQED
B6: SSAP_148: SEQ ID NO: 317; Corynebacterium liangguodongii (protein, listed as Corynebacterium liangguodongii)
chain: KDLETRMAANQQPAQQRPTTLADQIRGMEQQFALAMPKGAEASQLVRDALTALRQAPKLAQCTPQSVLGSLMTCAQLGLRPGVLGHAYLIPFYDRRAGGLVAQLVIGYQGLVELAHRSGQIKSLIARTVYENDVFDVDYGLEDKLVHKPYMGGDKGQPIAYYAVAKFTTGGHAFYVMSHPEMLDYRARFAKSAERGPWVDNFEAMALKTCVRQLSKWMPKSTELATAIAADESVRVDLTPDAINYPEHVDGEVVDAQGTTEDTAGEGEQSA
B7: SSAP_80: SEQ ID NO: 249 (protein)
chain: GHLVSKTEQDYIKQHYAKGATDQEFEHFIGVCRARGLNPAANQIYFVKYRSKDGPAKPAFILSIDSLRLIAHRTGDYAGCSEPIFTDGGKACTVTVRRNLKSGETGNFSGMAFYDEQVQQKNGRPTSFWQSKPRTMLEKCAEAKALRKAFPQDLGQFYIREEMPPQYDEPIQVHKPKALEEPRFSKSDLSRRKGLNRKLSALGVDPSRFDEVATFLDGTPDRELGQKLKLWLKEAGYGVNQ
B8: SSAP_94: SEQ ID NO: 263; Providencia alcalifaciens (protein, listed as Providencia alcalifaciens)
chain: STPPLAKSDLQKTQGTEVKIKTNEQKLVEFINQPGMKAQLAAALPKHITSDRMIRIVSTEIRKTPSLANCDIQSFIGAVVQCSQLGLEPGNALGHAYLLPFGNGKSDNGQQNVQLIIGYRGMIDLARRSGQIISISARTVRQGDNFHFEYGLNENLTHIPEGNEDSPITHVYAVARLKDGGVQFEVMTYNQIEKVRNLSKAGKNGPWVTHWEEMAKKTVIRRLFKYLPVSIEMQKAVILDEKAEANIEQEHSAIFEAEFEEVDSNGN
B9: SSAP_149: SEQ ID NO: 318; unclassified Oscillibacter (protein, listed as Oscillibacter sp.)
chain: KEGLIQGTQSAQAAKKGPATMQDYIKKMQGEIAKALPSVLTPERFTRITLSALSTNPKLAQTTPKSFLGAMMTAAQLGMEPNTPLGQAYLIPFKNHGVLECQFQLGYKGLIDLAYRSGEVSTIQAQTVYENDEFEYELGLEPKLHHVPAKGERGEPVYFYAVFRTKDGGYGFEVMSVDDVRTHAKKYSKAYSNGPWQTNFEEMAKKTVLKKALKYAPLKTEFMRGLTSDETIKTEISEDMYSVPDETVIEAEGYEVDGDTGEVIERPADGQ

How the values were obtained:
Format in all cases: cell-based
gene editing with Cas9 = assay: Screen of 322 new SSAP proteins, gene editing activity with Cas9 (Table 5); parameters: Cas9 with SSAP activity: scale not given here
How it was run: (§1)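 Sequence-mined SSAPs (n=322), synthesized; editing activity screened with Cas9 or dCas9.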

gene editing with dCas9 = assay: Screen of 322 new SSAP proteins, gene editing activity with dCas9 (Table 5); parameters: dCas9 with SSAP activity: scale not given here
How it was run: as §1

[1] = tested on: gene editing with Cas9 and dCas9; assay: Screen of 322 new SSAP proteins, activity across all experiments (Cas9 and dCas9, Table 5); parameters: scale not given here
How it was run: as §1

Row | Molecule | Cas9 with SSAP activity (gene editing with Cas9) | Cas9 with SSAP activity (normalized) (gene editing with Cas9) | dCas9 with SSAP activity (gene editing with dCas9) | dCas9 with SSAP activity (normalized) (gene editing with dCas9) | Activity across all experiments [1]
1 | B1 | 0.287 | 0.247 | 0.082 | 0.048 | 0.184
2 | B2 | −2.144 | −1.524 | −6.933 | −1.193 | −4.539
3 | B3 | −4.285 | −0.748 | −6.840 | −1.230 | −5.563
4 | B4 | −5.364 | −1.014 | −7.184 | −1.057 | −6.274
5 | B5 | −1.273 | −0.894 | −7.001 | −0.946 | −4.137
6 | B6 | −3.731 | −0.574 | −6.656 | −1.610 | −5.193
7 | B7 | −3.757 | −0.629 | −7.200 | −1.353 | −5.479
8 | B8 | −0.340 | −0.087 | −7.000 | −1.112 | −3.670
9 | B9 | −1.833 | −2.092 | −6.999 | −1.192 | −4.416
